Source: article PMC3185043, “A SILAC-Based Screen for Methyl-CpG Binding Proteins Identifies RBP-J as a DNA Methylation and Sequence-Specific Binding Protein”

Tests used:
[1] = target: MBD2b (GST-tagged, purified) (Homo sapiens, UniProt Q9UBB5 150-411); assay: EMSA; multiple shifts; EMSA: 20 mM HEPES pH 7.9, 1 mM EDTA, 3 mM MgCl2, 10 mM beta-mercaptoethanol, 10% glycerol, 0.1% Triton X-100, 2 ug BSA, 10 ng poly(dI-dC), 30 min on ice; pull-down: 150 mM NaCl, 50 mM Tris pH 8.0, 0.25% NP40, 0.5 mM DTT, poly(dI-dC), 2 h 4 C; details: protein: recombinant; tags: GST; label: 32P
[2] = target: RBP-J (GST-tagged, purified) (Homo sapiens, UniProt Q06330 1-500); assay: EMSA; multiple shifts; supershift with one of two antibodies; EMSA: 20 mM HEPES pH 7.9, 1 mM EDTA, 3 mM MgCl2, 10 mM beta-mercaptoethanol, 10% glycerol, 0.1% Triton X-100, 2 ug BSA, 10 ng poly(dI-dC), 30 min on ice; pull-down: 150 mM NaCl, 50 mM Tris pH 8.0, 0.25% NP40, 0.5 mM DTT, poly(dI-dC), 2 h 4 C; details: protein: recombinant; tags: His/GST; label: 32P
Chain of RBP-J (GST-tagged, purified) (Q06330 whole entry): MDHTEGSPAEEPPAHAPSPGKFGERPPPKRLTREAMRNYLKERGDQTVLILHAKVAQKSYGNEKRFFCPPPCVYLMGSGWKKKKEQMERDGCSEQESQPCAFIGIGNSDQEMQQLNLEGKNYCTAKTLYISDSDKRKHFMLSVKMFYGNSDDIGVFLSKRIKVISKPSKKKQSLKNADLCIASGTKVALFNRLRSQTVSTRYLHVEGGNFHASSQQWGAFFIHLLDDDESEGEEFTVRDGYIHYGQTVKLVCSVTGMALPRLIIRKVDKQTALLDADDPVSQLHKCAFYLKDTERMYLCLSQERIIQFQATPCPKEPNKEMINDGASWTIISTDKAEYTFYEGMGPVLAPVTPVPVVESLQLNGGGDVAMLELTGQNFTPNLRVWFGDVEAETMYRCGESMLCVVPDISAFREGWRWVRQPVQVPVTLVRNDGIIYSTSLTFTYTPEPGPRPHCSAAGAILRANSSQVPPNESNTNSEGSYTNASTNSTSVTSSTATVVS

Chain of MBD2b (GST-tagged, purified) (Q9UBB5 150-411): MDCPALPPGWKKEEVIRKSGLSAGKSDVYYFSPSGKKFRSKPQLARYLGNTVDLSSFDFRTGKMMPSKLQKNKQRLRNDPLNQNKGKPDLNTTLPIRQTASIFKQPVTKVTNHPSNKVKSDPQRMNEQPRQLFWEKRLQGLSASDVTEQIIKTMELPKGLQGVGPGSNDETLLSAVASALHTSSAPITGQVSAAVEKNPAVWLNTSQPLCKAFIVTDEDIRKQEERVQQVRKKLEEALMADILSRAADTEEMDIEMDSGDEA

B1: GSTP1 CpG-island oligo, methylated (EMSA) (dsDNA)
DNA 1: AAGCAGACACTGGCAGGTTTCGGCGGGAGTCCGCGGGACCCTCCAGAAGAGCGGCCGGCGCCGTGACCTAAGGCTAAGGCTCATA
DNA 2: TTTATGAGCCTTAGCCTTAGGTCACGGCGCCGGCCGCTCTTCTGGAGGGTCCCGCGGACTCCCGCCGAAACCTGCCAGTGTCTGC
modifications: 5-methylcytosine at CpG (M.SssI)
- binding result [1]: binds
- binding result [2]: binds
